Test results published in patent US20190175751A1 (UNIVERSITY OF UTAH RESEARCH FOUNDATION, published 2019).

Target: T1, FITC-HSA-MORF2 (human serum albumin grafted with multiple copies of morpholino MORF2, FITC-labelled) (human, UniProt P02768 25-609, a fraction of the amino groups converted with SM-(PEG)x to maleimido groups and carrying MORF2 via thioether bonds; FITC label)
T1 construct: mature; also called HSA-(MORF2)x; Nanoconjugate 2A
Experiment: confocal microscopy on CD20-expressing Raji cells, without Cy5-Fab′RTX-MORF1
Excerpt: Thus, we conducted in vitro confocal microscopy study, using CD20-expressing human NHL Raji B cell line (FIG. 7).

B1: CD20 on human Burkitt's B-cell non-Hodgkin's lymphoma Raji cells (receptor, UniProt P11836 1-297, looked up)
chain: MTTPRNSVNGTFPAEPMKGPIAMQSGPKPLFRRMSSLVGPTQSFFMRESKTLGAVQIMNGLFHIALGGLLMIPAGIYAPICVTVWYPLWGGIMYIISGSLLAATEKNSRKCLVKGKMIMNSLSLFAAISGMILSIMDILNIKISHFLKMESLNFIRAHTPYINIYNCEPANPSEKNSPSTQYCYSIQSLFLGILSVMLIFAFFQELVIAGIVENEWKRTCSRPKSNIVLLSAEEKKEQTIEIKEEVVGLTETSSQPKNEEDIEIIPIQEEEEEETETNFPEPPQDQESSPIENDSSP
notes: whole, on cells; also called CD20 antigen; CD20 receptor
binding result: no binding
